Article PMC10397247
Values belong to the binder of their own block, whether it stands above or below them.

What was measured:
P12-AA = target: T1, P12-AA; test: two-hybrid library CCmax; details: mean of both orientations;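 note: natural log of median RNA to DNA barcode read ratio; higher means stronger binding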
T1 chain: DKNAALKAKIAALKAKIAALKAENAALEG

GCN2_T = test: two-hybrid library CCmax;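 note: natural log of median RNA to DNA barcode read ratio; higher means stronger binding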
P9-AA = target: T2, P9-AA; test: two-hybrid library CCmax; details: mean of both orientations;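 note: natural log of median RNA to DNA barcode read ratio; higher means stronger binding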
T2 chain: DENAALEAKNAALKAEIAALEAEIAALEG

P2-AA = target: T3, P2-AA; test: two-hybrid library CCmax; details: mean of both orientations;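 note: natural log of median RNA to DNA barcode read ratio; higher means stronger binding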
T3 chain: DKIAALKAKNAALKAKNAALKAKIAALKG

AP8-AA = target: T4, AP8-AA; test: two-hybrid library CCmax; details: mean of both orientations;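 note: natural log of median RNA to DNA barcode read ratio; higher means stronger binding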
T4 chain: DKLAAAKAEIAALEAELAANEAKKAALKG

AP7-AA = target: T5, AP7-AA; test: two-hybrid library CCmax; details: mean of both orientations;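 note: natural log of median RNA to DNA barcode read ratio; higher means stronger binding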
T5 chain: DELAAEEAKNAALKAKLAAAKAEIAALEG

P7-AA = target: T6, P7-AA; test: two-hybrid library CCmax; details: mean of both orientations
T6 chain: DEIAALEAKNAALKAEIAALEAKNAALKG

P10-AA = target: T7, P10-AA; test: two-hybrid library CCmax; details: mean of both orientations
T7 chain: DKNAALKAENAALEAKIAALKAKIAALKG

P8-AA = target: T8, P8-AA; test: two-hybrid library CCmax; details: mean of both orientations
T8 chain: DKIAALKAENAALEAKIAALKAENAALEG

P3-AA = target: T9, P3-AA; test: two-hybrid library CCmax; details: mean of both orientations
T9 chain: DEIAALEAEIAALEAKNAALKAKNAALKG

P1-AA = target: T10, P1-AA; test: two-hybrid library CCmax; details: mean of both orientations
T10 chain: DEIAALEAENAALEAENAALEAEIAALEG

P11-AA = target: T11, P11-AA; test: two-hybrid library CCmax; details: mean of both orientations
T11 chain: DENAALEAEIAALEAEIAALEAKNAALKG

P4-AA = target: T12, P4-AA; test: two-hybrid library CCmax; details: mean of both orientations
T12 chain: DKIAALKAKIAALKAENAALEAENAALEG

4H432-AA = target: T13, 4H432-AA; test: two-hybrid library CCmax; details: mean of both orientations
T13 chain: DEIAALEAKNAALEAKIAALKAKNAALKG

4H3049-AA = target: T14, 4H3049-AA; test: two-hybrid library CCmax; details: mean of both orientations
T14 chain: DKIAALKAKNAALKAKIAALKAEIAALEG

4H2903-AA = target: T15, 4H2903-AA; test: two-hybrid library CCmax; details: mean of both orientations
T15 chain: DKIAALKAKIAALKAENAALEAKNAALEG

4H3915-AA = target: T16, 4H3915-AA; test: two-hybrid library CCmax; details: mean of both orientations
T16 chain: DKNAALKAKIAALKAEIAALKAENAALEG

4H2774-AA = target: T17, 4H2774-AA; test: two-hybrid library CCmax; details: mean of both orientations
T17 chain: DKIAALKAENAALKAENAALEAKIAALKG

4H2947-AA = target: T18, 4H2947-AA; test: two-hybrid library CCmax; details: mean of both orientations
T18 chain: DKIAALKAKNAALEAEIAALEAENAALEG

4H341-AA = target: T19, 4H341-AA; test: two-hybrid library CCmax; details: mean of both orientations
T19 chain: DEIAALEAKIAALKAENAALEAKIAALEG

4H324-AA = target: T20, 4H324-AA; test: two-hybrid library CCmax; details: mean of both orientations
T20 chain: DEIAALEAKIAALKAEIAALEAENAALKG

4H3974-AA = target: T21, 4H3974-AA; test: two-hybrid library CCmax; details: mean of both orientations
T21 chain: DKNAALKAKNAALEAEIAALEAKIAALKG

4H63-AA = target: T22, 4H63-AA; test: two-hybrid library CCmax; details: mean of both orientations
T22 chain: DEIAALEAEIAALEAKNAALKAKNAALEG

4H3094-AA = target: T23, 4H3094-AA; test: two-hybrid library CCmax; details: mean of both orientations
T23 chain: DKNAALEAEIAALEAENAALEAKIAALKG

4H3449-AA = target: T24, 4H3449-AA; test: two-hybrid library CCmax; details: mean of both orientations
T24 chain: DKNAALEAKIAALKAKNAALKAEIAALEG

4H3777-AA = target: T25, 4H3777-AA; test: two-hybrid library CCmax; details: mean of both orientations
T25 chain: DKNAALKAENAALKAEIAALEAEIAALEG

4H380-AA = target: T26, 4H380-AA; test: two-hybrid library CCmax; details: mean of both orientations
T26 chain: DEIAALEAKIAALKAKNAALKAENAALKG

4H446-AA = target: T27, 4H446-AA; test: two-hybrid library CCmax; details: mean of both orientations
T27 chain: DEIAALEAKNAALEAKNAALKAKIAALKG

4H2961-AA = target: T28, 4H2961-AA; test: two-hybrid library CCmax; details: mean of both orientations
T28 chain: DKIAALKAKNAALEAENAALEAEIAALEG

4H2760-AA = target: T29, 4H2760-AA; test: two-hybrid library CCmax
T29 chain: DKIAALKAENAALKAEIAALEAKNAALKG

4H3629-AA = target: T30, 4H3629-AA; test: two-hybrid library CCmax; details: mean of both orientations
T30 chain: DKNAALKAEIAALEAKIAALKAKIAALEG

4H3619-AA = target: T31, 4H3619-AA; test: two-hybrid library CCmax; details: mean of both orientations
T31 chain: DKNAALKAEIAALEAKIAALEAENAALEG

4H568-bN = target: T32, 4H568-bN; test: two-hybrid library CCNG1
T32 chain: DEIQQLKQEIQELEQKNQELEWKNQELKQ

4H797-bN = target: T33, 4H797-bN; test: two-hybrid library CCNG1
T33 chain: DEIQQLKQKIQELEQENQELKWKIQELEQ

4H953-bN = target: T34, 4H953-bN; test: two-hybrid library CCNG1
T34 chain: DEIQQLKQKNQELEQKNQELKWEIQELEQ

4H687-bN = target: T35, 4H687-bN; test: two-hybrid library CCNG1
T35 chain: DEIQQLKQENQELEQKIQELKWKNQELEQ

4H967-bN = target: T36, 4H967-bN; test: two-hybrid library CCNG1
T36 chain: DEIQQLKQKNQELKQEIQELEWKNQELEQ

4H883-bN = target: T37, 4H883-bN; test: two-hybrid library CCNG1
T37 chain: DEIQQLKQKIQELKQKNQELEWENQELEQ

4H72-bN = target: T38, 4H72-bN; test: two-hybrid library CCNG1
T38 chain: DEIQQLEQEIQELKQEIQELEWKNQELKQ

4H3843-bN = target: T39, 4H3843-bN; test: two-hybrid library CCNG1
T39 chain: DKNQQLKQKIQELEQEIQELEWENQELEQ

4H370-bN = target: T40, 4H370-bN; test: two-hybrid library CCNG1
T40 chain: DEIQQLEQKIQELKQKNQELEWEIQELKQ

4H918-bN = target: T41, 4H918-bN; test: two-hybrid library CCNG1
T41 chain: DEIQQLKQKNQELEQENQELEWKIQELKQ

4H4001-bN = target: T42, 4H4001-bN; test: two-hybrid library CCNG1
T42 chain: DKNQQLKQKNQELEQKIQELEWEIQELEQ

4H462-bN = target: T43, 4H462-bN; test: two-hybrid library CCNG1
T43 chain: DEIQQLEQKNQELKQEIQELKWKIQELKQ

4H3782-bN = target: T44, 4H3782-bN; test: two-hybrid library CCNG1
T44 chain: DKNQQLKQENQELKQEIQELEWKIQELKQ

4H607-bN = target: T45, 4H607-bN; test: two-hybrid library CCNG1
T45 chain: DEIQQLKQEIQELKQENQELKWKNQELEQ

interaction score (P12-AA): -1.57 | interaction score (GCN2_T): -1.54 | interaction score (P9-AA): -0.901 | interaction score (P2-AA): -1.88 | interaction score (AP8-AA): -1.59 | interaction score (AP7-AA): -1.62 | interaction score (P7-AA): -0.655 | interaction score (P10-AA): -0.802 | interaction score (P8-AA): -1.22 | interaction score (P3-AA): -1.95 | interaction score (P1-AA): -1.88 | interaction score (P11-AA): -1.25 | interaction score (P4-AA): -2.36
Binder: DEEAALEAKAAALKAELAANEAKLAAAKG [AP6-AA]

interaction score (4H432-AA): -0.454 | interaction score (4H3049-AA): 1.62 | interaction score (4H2903-AA): -1.32 | interaction score (4H3915-AA): -1.44 | interaction score (4H2774-AA): -1.29 | interaction score (4H2947-AA): 0.202 | interaction score (4H341-AA): -0.788 | interaction score (4H324-AA): -1.09 | interaction score (4H3974-AA): -1.69 | interaction score (4H63-AA): -1.64 | interaction score (4H3094-AA): 2.17 | interaction score (4H3449-AA): -1.27 | interaction score (4H3777-AA): -0.779 | interaction score (4H380-AA): -1.48 | interaction score (4H446-AA): -1.49 | interaction score (4H2961-AA): -1.97 | interaction score (4H2760-AA): 0.876 | interaction score (4H3629-AA): -1.14 | interaction score (4H3619-AA): -1.77
Binder: DKIAALKAENAALKAEIAALEAKNAALKG [4H2760-AA]

interaction score (4H568-bN): 0.649 | interaction score (4H797-bN): -0.598 | interaction score (4H953-bN): -1.96 | interaction score (4H687-bN): -1.17 | interaction score (4H967-bN): -0.814 | interaction score (4H883-bN): -1.39 | interaction score (4H72-bN): -0.189 | interaction score (4H3843-bN): -0.715 | interaction score (4H370-bN): 0.966 | interaction score (4H918-bN): -0.831 | interaction score (4H4001-bN): -0.655 | interaction score (4H462-bN): -1.49 | interaction score (4H3782-bN): -0.329 | interaction score (4H607-bN): -0.679
Binder: DEIQQLEQKIQELKQKNQELEWEIQELKQ [4H370-bN]
